We go through six molecules from US20170190753A1 (LABORATOIRE FRANCAIS DU FRACTIONNEMENT ET DES …, published 2017).

First the molecules themselves.
B1: pCEP4-1NT11-14CT20 (other)
chain: EDCNELPPRRNTEILTGSWSDQTYPEGTQAIYKCRPGYRSLGNVIMVCRKGEWVALNPLRKCQKRPCGHPGDTPFGTFTLTGGNVFEYGVKAVYTCNEGYQLLGEINYRECDTDGWTNDIPICEVVKCLPVTAPENGKIVSSAMEPDREYHFGQAVRFVCNSGYKIEGDEEMHCSDDGFWSKEKPKCVEISCKSPDVINGSPISQKIIYKENERFQYKCNMGYEYSERGDAVCTESGWRPLPSCEEKSCDNPYIPNGDYSPLRIKHRTGDEITYQCRNGFYPATRGNTAKCTSTGWIPAPRCTLKPCDYPDIKHGGLYHENMRRPYFPVAVGKYYSYYCDEHFETPSGSYWDHIHCTQDGWSPAVPCLRKCYFPYLENGYNQNHGRKFVQGKSIDVACHPGYALPKAQTTVTCMENGWSPTPRCIRVKTCSKSSIDIENGFISESQYTYALKEKAKYQCKLGYVTADGETSGSITCGKDGWSAQPTCIKSCDIPVFMNARTKNDFTWFKLNDTLDYECHDGYESNTGSTTGSIVCGYNGWSDLPICYERECELPKIDVHLVPDRKKDQYKVGEVLKFSCKPGFTIVGPNSVQCYHFGLSPDLPICKEQVQSCGPPPELLNGNVKEKTKEEYGHSEVVEYYCNPRFLMKGPNKIQCVDGEWTTLPVCIVEESTGASGCPPPPQIPNSHNMTTTLNYRDGEKVSVLCQENYLIQEGEEITCKDGRWQSIPLCVEKIPCSQPPQIEHGTINSSRSSQESYAHGTKLSYTCEGGFRISEENETTCYMGKWSSPPQCEGLPCKSPPEISHGVVAHMSDSYQYGEEVTYKCFEGFGIDGPAIAKCLGEKWSHPPSCIKTDCLSLPSFENAIPMGEKKDVYKAGEQVTYTCATYYKMDGASNVTCINSRWTGRPTCRDTSCVNPPTVQNAYIVSRQMSKYPSGERVRYQCRSPYEMFGDEEVMCLNGNWTEPPQCKDSTGKCGPPPPIDNGDITSFPLSVYAPASSVEYQCQNLYQLEGNKRITCRNGQWSEPPKCLHPCVISREIMENYNIALRWTAKQKLYSRTGESVEFVCKRGYRLSSRSHTLRTTCWDGKLEYPTCAKRGGSGHHHHHH
B2: pCEP4-1NT9-15CT20 (other)
chain: EDCNELPPRRNTEILTGSWSDQTYPEGTQAIYKCRPGYRSLGNVIMVCRKGEWVALNPLRKCQKRPCGHPGDTPFGTFTLTGGNVFEYGVKAVYTCNEGYQLLGEINYRECDTDGWTNDIPICEVVKCLPVTAPENGKIVSSAMEPDREYHFGQAVRFVCNSGYKIEGDEEMHCSDDGFWSKEKPKCVEISCKSPDVINGSPISQKIIYKENERFQYKCNMGYEYSERGDAVCTESGWRPLPSCEEKSCDNPYIPNGDYSPLRIKHRTGDEITYQCRNGFYPATRGNTAKCTSTGWIPAPRCTLKPCDYPDIKHGGLYHENMRRPYFPVAVGKYYSYYCDEHFETPSGSYWDHIHCTQDGWSPAVPCLRKCYFPYLENGYNQNYGRKFVQGKSIDVACHPGYALPKAQTTVTCMENGWSPTPRCIRVKTCSKSSIDIENGFISESQYTYALKEKAKYQCKLGYVTADGETSGSITCGKDGWSAQPTCIKSCDIPVFMNARTKNDFTWFKLNDTLDYECHDGYESNTGSTTGSIVCGYNGWSDLPICYEREGASGCSQPPQIEHGTINSSRSSQESYAHGTKLSYTCEGGFRISEENETTCYMGKWSSPPQCEGLPCKSPPEISHGVVAHMSDSYQYGEEVTYKCFEGFGIDGPAIAKCLGEKWSHPPSCIKTDCLSLPSFENAIPMGEKKDVYKAGEQVTYTCATYYKMDGASNVTCINSRWTGRPTCRDTSCVNPPTVQNAYIVSRQMSKYPSGERVRYQCRSPYEMFGDEEVMCLNGNWTEPPQCKDSTGKCGPPPPIDNGDITSFPLSVYAPASSVEYQCQNLYQLEGNKRITCRNGQWSEPPKCLHPCVISREIMENYNIALRWTAKQKLYSRTGESVEFVCKRGYRLSSRSHTLRTTCWDGKLEYPTCAKRGGSGHHHHHH
B3: pCEP4-1NT11-19CT20 (other)
chain: EDCNELPPRRNTEILTGSWSDQTYPEGTQAIYKCRPGYRSLGNVIMVCRKGEWVALNPLRKCQKRPCGHPGDTPFGTFTLTGGNVFEYGVKAVYTCNEGYQLLGEINYRECDTDGWTNDIPICEVVKCLPVTAPENGKIVSSAMEPDREYHFGQAVRFVCNSGYKIEGDEEMHCSDDGFWSKEKPKCVEISCKSPDVINGSPISQKIIYKENERFQYKCNMGYEYSERGDAVCTESGWRPLPSCEEKSCDNPYIPNGDYSPLRIKHRTGDEITYQCRNGFYPATRGNTAKCTSTGWIPAPRCTLKPCDYPDIKHGGLYHENMRRPYFPVAVGKYYSYYCDEHFETPSGSYWDHIHCTQDGWSPAVPCLRKCYFPYLENGYNQNHGRKFVQGKSIDVACHPGYALPKAQTTVTCMENGWSPTPRCIRVKTCSKSSIDIENGFISESQYTYALKEKAKYQCKLGYVTADGETSGSITCGKDGWSAQPTCIKSCDIPVFMNARTKNDFTWFKLNDTLDYECHDGYESNTGSTTGSIVCGYNGWSDLPICYERECELPKIDVHLVPDRKKDQYKVGEVLKFSCKPGFTIVGPNSVQCYHFGLSPDLPICKEQVQSCGPPPELLNGNVKEKTKEEYGHSEVVEYYCNPRFLMKGPNKIQCVDGEWTTLPVCIVEESTGASGCGPPPPIDNGDITSFPLSVYAPASSVEYQCQNLYQLEGNKRITCRNGQWSEPPKCLHPCVISREIMENYNIALRWTAKQKLYSRTGESVEFVCKRGYRLSSRSHTLRTTCWDGKLEYPTCAKRGGSGHHHHHH
B4: pCEP4-1NT8-12CT20 (other)
chain: EDCNELPPRRNTEILTGSWSDQTYPEGTQAIYKCRPGYRSLGNVIMVCRKGEWVALNPLRKCQKRPCGHPGDTPFGTFTLTGGNVFEYGVKAVYTCNEGYQLLGEINYRECDTDGWTNDIPICEVVKCLPVTAPENGKIVSSAMEPDREYHFGQAVRFVCNSGYKIEGDEEMHCSDDGFWSKEKPKCVEISCKSPDVINGSPISQKIIYKENERFQYKCNMGYEYSERGDAVCTESGWRPLPSCEEKSCDNPYIPNGDYSPLRIKHRTGDEITYQCRNGFYPATRGNTAKCTSTGWIPAPRCTLKPCDYPDIKHGGLYHENMRRPYFPVAVGKYYSYYCDEHFETPSGSYWDHIHCTQDGWSPAVPCLRKCYFPYLENGYNQNYGRKFVQGKSIDVACHPGYALPKAQTTVTCMENGWSPTPRCIRVKTCSKSSIDIENGFISESQYTYALKEKAKYQCKLGYVTADGETSGSITCGKDGWSAQPTCIKSGASGCGDIPELEHGWAQLSSPPYYYGDSVEFNCSESFTMIGHRSITCIHGVWTQLPQCVAIDKLKKCKSSNLIILEEHLKNKKEFDHNSNIRYRCRGKEGWIHTVCINGRWDPEVNCSMAQIQLCPPPPQIPNSHNMTTTLNYRDGEKVSVLCQENYLIQEGEEITCKDGRWQSIPLCVEKIPCSQPPQIEHGTINSSRSSQESYAHGTKLSYTCEGGFRISEENETTCYMGKWSSPPQCEGLPCKSPPEISHGVVAHMSDSYQYGEEVTYKCFEGFGIDGPAIAKCLGEKWSHPPSCIKTDCLSLPSFENAIPMGEKKDVYKAGEQVTYTCATYYKMDGASNVTCINSRWTGRPTCRDTSCVNPPTVQNAYIVSRQMSKYPSGERVRYQCRSPYEMFGDEEVMCLNGNWTEPPQCKDSTGKCGPPPPIDNGDITSFPLSVYAPASSVEYQCQNLYQLEGNKRITCRNGQWSEPPKCLHPCVISREIMENYNIALRWTAKQKLYSRTGESVEFVCKRGYRLSSRSHTLRTTCWDGKLEYPTCAKRGGSGHHHHHH
B5: pCEP4-1NT10-15CT20 (other)
chain: EDCNELPPRRNTEILTGSWSDQTYPEGTQAIYKCRPGYRSLGNVIMVCRKGEWVALNPLRKCQKRPCGHPGDTPFGTFTLTGGNVFEYGVKAVYTCNEGYQLLGEINYRECDTDGWTNDIPICEVVKCLPVTAPENGKIVSSAMEPDREYHFGQAVRFVCNSGYKIEGDEEMHCSDDGFWSKEKPKCVEISCKSPDVINGSPISQKIIYKENERFQYKCNMGYEYSERGDAVCTESGWRPLPSCEEKSCDNPYIPNGDYSPLRIKHRTGDEITYQCRNGFYPATRGNTAKCTSTGWIPAPRCTLKPCDYPDIKHGGLYHENMRRPYFPVAVGKYYSYYCDEHFETPSGSYWDHIHCTQDGWSPAVPCLRKCYFPYLENGYNQNHGRKFVQGKSIDVACHPGYALPKAQTTVTCMENGWSPTPRCIRVKTCSKSSIDIENGFISESQYTYALKEKAKYQCKLGYVTADGETSGSITCGKDGWSAQPTCIKSCDIPVFMNARTKNDFTWFKLNDTLDYECHDGYESNTGSTTGSIVCGYNGWSDLPICYERECELPKIDVHLVPDRKKDQYKVGEVLKFSCKPGFTIVGPNSVQCYHFGLSPDLPICKEQVQSGASGCSQPPQIEHGTINSSRSSQESYAHGTKLSYTCEGGFRISEENETTCYMGKWSSPPQCEGLPCKSPPEISHGVVAHMSDSYQYGEEVTYKCFEGFGIDGPAIAKCLGEKWSHPPSCIKTDCLSLPSFENAIPMGEKKDVYKAGEQVTYTCATYYKMDGASNVTCINSRWTGRPTCRDTSCVNPPTVQNAYIVSRQMSKYPSGERVRYQCRSPYEMFGDEEVMCLNGNWTEPPQCKDSTGKCGPPPPIDNGDITSFPLSVYAPASSVEYQCQNLYQLEGNKRITCRNGQWSEPPKCLHPCVISREIMENYNIALRWTAKQKLYSRTGESVEFVCKRGYRLSSRSHTLRTTCWDGKLEYPTCAKRGGSGHHHHHH
B6: pCEP4-1NT7-12CT20 (other)
chain: EDCNELPPRRNTEILTGSWSDQTYPEGTQAIYKCRPGYRSLGNVIMVCRKGEWVALNPLRKCQKRPCGHPGDTPFGTFTLTGGNVFEYGVKAVYTCNEGYQLLGEINYRECDTDGWTNDIPICEVVKCLPVTAPENGKIVSSAMEPDREYHFGQAVRFVCNSGYKIEGDEEMHCSDDGFWSKEKPKCVEISCKSPDVINGSPISQKIIYKENERFQYKCNMGYEYSERGDAVCTESGWRPLPSCEEKSCDNPYIPNGDYSPLRIKHRTGDEITYQCRNGFYPATRGNTAKCTSTGWIPAPRCTLKPCDYPDIKHGGLYHENMRRPYFPVAVGKYYSYYCDEHFETPSGSYWDHIHCTQDGWSPAVPCLRKCYFPYLENGYNQNYGRKFVQGKSIDVACHPGYALPKAQTTVTCMENGWSPTPRCIRVKTGASGCGDIPELEHGWAQLSSPPYYYGDSVEFNCSESFTMIGHRSITCIHGVWTQLPQCVAIDKLKKCKSSNLIILEEHLKNKKEFDHNSNIRYRCRGKEGWIHTVCINGRWDPEVNCSMAQIQLCPPPPQIPNSHNMTTTLNYRDGEKVSVLCQENYLIQEGEEITCKDGRWQSIPLCVEKIPCSQPPQIEHGTINSSRSSQESYAHGTKLSYTCEGGFRISEENETTCYMGKWSSPPQCEGLPCKSPPEISHGVVAHMSDSYQYGEEVTYKCFEGFGIDGPAIAKCLGEKWSHPPSCIKTDCLSLPSFENAIPMGEKKDVYKAGEQVTYTCATYYKMDGASNVTCINSRWTGRPTCRDTSCVNPPTVQNAYIVSRQMSKYPSGERVRYQCRSPYEMFGDEEVMCLNGNWTEPPQCKDSTGKCGPPPPIDNGDITSFPLSVYAPASSVEYQCQNLYQLEGNKRITCRNGQWSEPPKCLHPCVISREIMENYNIALRWTAKQKLYSRTGESVEFVCKRGYRLSSRSHTLRTTCWDGKLEYPTCAKRGGSGHHHHHH
Wherever C3 convertase activity % of the control is given: test concentration or dose not given here.

The target of the assay is C3 convertase complex (UniProt P01024 23-1663; P00751 260-764). Put plainly: cell-based or functional assay.
Sequence of C3 convertase complex (P01024 23-1663, chain 1 of 2): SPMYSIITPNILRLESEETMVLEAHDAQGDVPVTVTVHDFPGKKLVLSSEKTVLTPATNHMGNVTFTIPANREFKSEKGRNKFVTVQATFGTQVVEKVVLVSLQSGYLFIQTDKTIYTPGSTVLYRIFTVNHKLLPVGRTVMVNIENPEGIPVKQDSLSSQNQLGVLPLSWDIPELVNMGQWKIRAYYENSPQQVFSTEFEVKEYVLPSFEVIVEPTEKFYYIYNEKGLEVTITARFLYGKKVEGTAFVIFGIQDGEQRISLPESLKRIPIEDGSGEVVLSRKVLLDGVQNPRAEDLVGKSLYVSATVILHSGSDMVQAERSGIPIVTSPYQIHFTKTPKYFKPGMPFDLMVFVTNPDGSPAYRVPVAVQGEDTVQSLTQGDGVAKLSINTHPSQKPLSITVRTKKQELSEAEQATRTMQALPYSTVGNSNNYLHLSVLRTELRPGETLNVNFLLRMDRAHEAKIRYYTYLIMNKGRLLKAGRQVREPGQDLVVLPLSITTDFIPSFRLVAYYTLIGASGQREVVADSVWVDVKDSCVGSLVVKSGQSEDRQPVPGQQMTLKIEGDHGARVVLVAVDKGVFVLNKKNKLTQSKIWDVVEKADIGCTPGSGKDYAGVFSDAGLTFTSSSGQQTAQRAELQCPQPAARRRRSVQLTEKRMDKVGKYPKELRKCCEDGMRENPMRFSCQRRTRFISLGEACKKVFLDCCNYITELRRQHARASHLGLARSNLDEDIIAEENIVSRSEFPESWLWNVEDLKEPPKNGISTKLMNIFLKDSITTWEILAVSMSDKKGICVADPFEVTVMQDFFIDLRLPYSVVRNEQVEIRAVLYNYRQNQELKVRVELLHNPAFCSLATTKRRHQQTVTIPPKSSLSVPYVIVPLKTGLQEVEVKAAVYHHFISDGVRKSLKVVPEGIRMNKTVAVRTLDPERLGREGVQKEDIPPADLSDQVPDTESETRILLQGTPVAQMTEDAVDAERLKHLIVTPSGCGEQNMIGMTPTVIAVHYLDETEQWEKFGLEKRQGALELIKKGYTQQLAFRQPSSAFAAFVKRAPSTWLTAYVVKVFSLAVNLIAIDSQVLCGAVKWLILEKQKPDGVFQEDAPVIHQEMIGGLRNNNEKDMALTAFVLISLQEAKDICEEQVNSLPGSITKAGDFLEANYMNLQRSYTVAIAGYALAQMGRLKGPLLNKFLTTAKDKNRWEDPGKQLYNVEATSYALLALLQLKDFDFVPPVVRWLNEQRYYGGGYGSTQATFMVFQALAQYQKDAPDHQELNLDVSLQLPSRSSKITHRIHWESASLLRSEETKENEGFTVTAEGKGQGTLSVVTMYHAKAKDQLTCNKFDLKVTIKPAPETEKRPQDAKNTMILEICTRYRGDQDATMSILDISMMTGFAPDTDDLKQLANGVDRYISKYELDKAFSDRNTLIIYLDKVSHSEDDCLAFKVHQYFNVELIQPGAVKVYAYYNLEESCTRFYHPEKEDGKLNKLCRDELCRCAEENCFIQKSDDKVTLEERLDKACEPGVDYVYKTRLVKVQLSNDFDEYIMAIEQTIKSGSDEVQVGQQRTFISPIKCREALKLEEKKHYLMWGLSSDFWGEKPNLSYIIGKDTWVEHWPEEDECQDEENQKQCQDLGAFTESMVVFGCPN
Sequence of C3 convertase complex (P00751 260-764, chain 2 of 2): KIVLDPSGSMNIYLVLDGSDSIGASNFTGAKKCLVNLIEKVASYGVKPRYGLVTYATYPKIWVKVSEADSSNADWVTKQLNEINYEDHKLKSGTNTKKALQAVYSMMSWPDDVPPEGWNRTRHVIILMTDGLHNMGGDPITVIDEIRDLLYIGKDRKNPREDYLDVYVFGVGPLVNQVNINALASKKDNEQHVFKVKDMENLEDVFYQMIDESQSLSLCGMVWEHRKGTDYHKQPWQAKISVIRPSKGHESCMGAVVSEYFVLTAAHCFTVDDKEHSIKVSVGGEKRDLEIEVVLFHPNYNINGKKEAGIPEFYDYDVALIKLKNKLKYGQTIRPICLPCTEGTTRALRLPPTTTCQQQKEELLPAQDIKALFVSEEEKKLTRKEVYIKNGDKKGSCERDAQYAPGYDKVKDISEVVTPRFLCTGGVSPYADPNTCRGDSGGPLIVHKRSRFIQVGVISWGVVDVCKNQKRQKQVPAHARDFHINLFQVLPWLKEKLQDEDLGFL
Consider B1, for which the “C3 convertase activity % of the control” value was 6 % of the control and the “C3 convertase activity IC50” value worked out at 1.99 µg/mL.
For B2, in that order: 5 % of the control and 2.19 µg/mL.
For B3, in that order: 5 % of the control and 1.78 µg/mL.
On the same counts, the results for B4 are 4 % of the control and 1.87 µg/mL.
Take B5: the “C3 convertase activity % of the control” value was 6 % of the control and the “C3 convertase activity IC50” value was found to be 1.17 µg/mL.
Consider B6, for which the “C3 convertase activity % of the control” value is 7 % of the control and the “C3 convertase activity IC50” value came out at 2.04 µg/mL.
